Measured values as given in the DeepSol protein solubility set.

Experiment: soluble on expression in E. coli; label from the status in PepcDB or PDB records

Question: For “MSLNVIDLFSGVGGLSLGAARAGFDVKMAVEIDQHAINTHAINFPRSLHVQEDVSLLNAEIIKGFFKNDMPIDGIIGGPPCQGFSSIGKGNPDDSRNQLYMHFYRLVSELQPLFFLAENVPGIMQEKYSGIRNKAFNLVSGDYDILDPIKVKASDYGAPTIRTRYFFIGVKKSLKLDISDEVFMPKMIDPVTVKDALYGLPDIIDANWQSDSESWRTIKKDRKGGFYEKLWGQIPRNVGDTESIAKLKNNIISGCTGTLHSKIVQERYASLSFGETDKISRSTRLDPNGFCPTLRAGTARDKGSFQAVRPIHPYHPRVITPREAARLQGFPDWFRFHVTKWHSFRQIGNSVSPIVAEYILKGLYNLLNKRVQPEYLNHNSLEVREGHHHHHH”, which “soluble on expression in E. coli” value is on record?
Answer: soluble

Question: Which “soluble on expression in E. coli” value does the source give for “MTTMPQRESTIAVPDDRRKQLGAFLRARRESLDPQRLGLPRVGRRRTPGLRREEVAMLADVGVTWYTWLEQGREVNPSEAVLVGVANALQCSPLETRHLFVLAGLTPPEATQVTVCEGISPGTRRMLDSLMPQPASIQKPNFDIVAWNDSFCRLMGIDFATLPEEDRNCIYLYLTHETWRSRIENRDVLPTFVSYFRAAMAEHRGDPAWENKLARFFAASSEFEALWHQRYEVRGVENQIKHFNHPQLGRFSLQQMYWYSAPRNGSRLLVYLPMDEAGEQALAWLDQH” here?
Answer: not soluble

Question: For “MSLTRPVTLSEPHFSQHTLNKYASLMAQGNGYLGLRASHEEDYTRQTRGMYLAGLYHRAGKGEINELVNLPDILGMEIAINGEVFSLSHEAWQRELDFASGELRRNVVWRTSNGAGYTIASRRFVSADQLPLIALEITITPLDADASVLISTGIDATQTNHGRQHLDETQVRVFGQHLMQGIYTTQDGRSDVAISCCCKVSGDVQQCYTAKERRLLQHTSAQLHAGETVTLQKLVWIDWRDDRQAVLDEWGSASLRQLEICAQQSYDQLLAASTENWRQWWQKRRITVNGGDAHDQQALDYALYHLRIMTPAHDERSSIAAKGLTGEGYKGHVFWDTEVFLLPFHLFSDPTVARSLLRYRWHNLPGAQEKARRSGWQGALFPWESARSGEEETPEFAAINIRTGLRQKVASAQAEHHLVADIAWAVIQYWQTTGDESFIAHEGMALLLETAKFWISRAVRVNDRLEIHDVIGPDEYTEHVNNNAFTSYMARYNVQQALNIARQFGCSDDAFIHRAEMFLKELWMPETQPDGVLPQDDSFMAKPAINLAKYKAAAGKQTILLDYSRAEVNEMQILKQADVVMLNYMLPEQFSAVSCLANLQFYEPRTIHDSSLSKAIHGIVAARCGLLTQSYQFWREGTEIDLGADPHSCDDGIHAAATGAIWLGAIQGFAGVSVRDGELHLNPALPEQWQQLSFPLFWQGCELQVTLDAQRIAIRTSAPVSLRLNGQLISVAEESVFCLGDFILPFNGTATTHQEDEEGHHHHHH”, which “soluble on expression in E. coli” value is on record?
Answer: soluble

Question: With “MSIYYDLYENPKQEDAEEQKLLHARVVPSGTYTTKEFVERVSMMHHIPHAQLVGAVEAITDELQTLLSRGYIVEFGDLGHFSLTLSLEKEIIDRKEVRSPSIRLKNIKLKVKQTYKRELNSKMDLERISSPTRSNAKISEDECLKKLQDFLEKHPCINRADYCAITGMSRLQALHQLNLFIEKGIIQKYGNGKTVVYIRVV” as the sequence, how does the “soluble on expression in E. coli” value read?
Answer: not soluble

Question: With “MPTVNVIGAGLAGSEAAWQIAQAGVDVNLYEMRPVKMTPAHHTSNFAELVCTNSLRANQITNAVGLLKEEMRQLHSIIIQSADATAVPAGGALAVDREPFSELVTQKLTSNSHIHVVNEELSAFPDGITVVATGPLTAPGLAQAIVDLNGEAGLSFFDAAAPILDANTINEDIVYKKSRYDRGEAAYLNCPMTKDEFLAFYQALVSAEVAEGHDFEKMTVFEGCMPIEVMAKRGIKTMLFGPLKPVGLEDPRTGKEPYAVVQLRQDNAAASLYNMVGFQTHLKWGEQKRVFRLIPGLENVQIVRYGVMHRNTFMKSPVVLEPTYASKRRPDLFFAGQMTGVEGYVESAASGLIAGINATRMALGETPVIFPETTAMGSMAHYITHTSAHHFQPMNANFGIMPALTVKIRNKKERNQQLADRALKDLATFQAGMNRVEQVLEHHHHHH” as the sequence, how does the “soluble on expression in E. coli” value read?
Answer: soluble

Question: With “MSLAEGNYISRIRAKIGHDPLIMINTFAVLWNEKHDAIFLEQRADIPDGWGFPGGFVEYGESPMDAIVREVKEETNLDVKVKNMFEMISSVNPHNFWGDAQQNLSLGFEIELLDGKLQVDQSETLAAEFVPINPEPKMFVPAAQANMHRILTWEDRPKPWLIDSNIKSHSEGHHHHHH” as the sequence, how does the “soluble on expression in E. coli” value read?
Answer: soluble

Question: With “AEVPLPQLRAYTVDASWLQPMAPLQIADHTWQIGTEDLTALLVQTPDGAVLLDGGMPQMASHLLDNMKARGVTPRDLRLILLSHAHADHAGPVAELKRRTGAKVAANAESAVLLARGGSDDLHFGDGITYPPANADRIVMDGEVITVGGIVFTAHFMAGHTPGSTAWTWTDTRNGKPVRIAYADSLSAPGYQLQGNPRYPHLIEDYRRSFATVRALPCDVLLTPHPGASNWDYAAGARAGAKALTCKAYADAAEQKFDGQLAKETAGAR” as the sequence, how does the “soluble on expression in E. coli” value read?
Answer: soluble

Question: With “MGSDKIHHHHHHQPGATGGTWTCCPVSWRAFQSNCYFPLNDNQTWHESERNCSGMSSHLVTINTEAEQNFVTQLLDKRFSYFLGLADENVEGQWQWVDKTPFNPHTVFWEKGESNDFMEEDCVVLVHVHEKWVWNDFPCHFEVRRICKLPGITFNWKPSK” as the sequence, how does the “soluble on expression in E. coli” value read?
Answer: not soluble

Question: With “GPGSMAFGNASKGTDDYTPEEHLTAAVMEYKKLEAANQNSVEHMYNVLSSPFKIGSKPCEAIRGDALRCLSEIIGNFTAKSTSGTDGSTVMANSASIVSQELPPIHRCYESVLHYESCVLERTLSRHNSMVATFEARRLREADSAREAAAAGGDI” as the sequence, how does the “soluble on expression in E. coli” value read?
Answer: not soluble

Question: For “MGSDKIHHHHHHMPQTEAPDRILLIKLRHHGDILLTTPVARTLKSRFPQCEIDMLVYRETVPLLQHNPDIARVWTLDRSLRGWRKLVSQLRLLLALRRRRYQTVIHLSDQMQGAFFAKLLARRHAIGFDYPKRRKSPWHRFFTALAPLAPSDTLHTVSQNLLALSPLGITPTADEQRCVLPIQASDREAVAALLREAGVSGPYIVIHPSSRWFFKCWEDDRFAGLAEALASDGWSIVLTAAPDPAEMDMVAAIQGKIRSDRVVSVAGRLTLNQLAAIIDGARMFIGVDSVPMHMAAALGKDTVALFGPSKIHEWHPWMTRHRLLNAADYGELIDPDQVDTSTRQRYLKNIPLEAALRASRELLSSPAQE”, which “soluble on expression in E. coli” value is on record?
Answer: not soluble

Question: With “MTQTVYVKLSQITQVHKKDVFLSDIADVYCSDKSTASRCKAVKVQTIHSDQEKRYMGSIVDVVQKISENVPEAEVNSVGETDFIIDYQPSKKPMYTWQW” as the sequence, how does the “soluble on expression in E. coli” value read?
Answer: not soluble

Question: Which “soluble on expression in E. coli” value does the source give for “MTSFNSFMRPLAAAILSALVTLAPVAPQAQEAVRGAVTNLPIPRFVSMKANEGNVRRGPSLTHRIDWVFKRRDMPLQITAEHGHWRKVQDRDGAGGWVHYALLSGVRTVLVEKDMMPLYARPDPASQVAAHFEMGVVARLGTCTQDWCRISAGGYRGWAPKENLWGVGTDEIRELEHHHHHH” here?
Answer: not soluble

Question: For “MGSDKIHHHHHHMNTPFMLHQGTSPVILAFPHTGTEVPPAIWDRLDDNGRIFADTDWHIHTLYAGLLENATTVRATFHRYVIDANRDPAGVSLYPGQNTTGLVPETDFDGKPIWKTGAEPNEADIAHRLETFHAPYHAALAAEIERVKSIHGIAILYDCHSIRSHIPFLFEGKLPDFNIGTDMGKTCDPAIEKIAVEVTAAAQGYDSILNGRFKGGWTTRHYGKPQTGVHAIQMELAQSTHLQNEHPPFAYDTGKAERLRTHLKTILTRMEKFALDTK”, which “soluble on expression in E. coli” value is on record?
Answer: not soluble

Question: With “MYEAHFGLKQLPFTLTPNTSLFHGLSPHYEAIHTVLSAISMGEGIIKVTGEVGTGKTLVCRMLINELPSNVELLYLPNPVMNGHELRQALAKELWLDQSGDDIALIDRIHEKIIDLHAEGKLVVVFIDEAQALSDEALETLRLFGNLETDYKKLLQIVLFGQPELDERLQQHNLRQLRQRITFSALLRALNMNETVAYIRYRIAESGCENNPFSLVQMKAIWKATNGIPRLINQVCHKSLLIAFSEQVNNVPSKAVFNAIIDTADTVKPKHYFPTFWGWRVSLEHHHHHH” as the sequence, how does the “soluble on expression in E. coli” value read?
Answer: soluble

Question: Which “soluble on expression in E. coli” value does the source give for “MGSDKIHHHHHHGIDNGTPKSKNEIGVNTIVKKSSRAAVTSNSSFTSFKLHAYIVKSNDIATSGWGNAYMDGIEYKGGQGSWATTSGTFYWPITEMQFFGYTNDVTYTAPASSNAYPTISYTLPDTPADQKDIIVAYSKDVTKPSDNTLNLTFQHILTRINFAVKLVDSSYTYTVESITITGAKGGTATYTFGGTEGKGGNWNITGSAPASGYSYTFDNTVTAKDGIYDYTQNDNSLMLYPQSLTDAKIIVKYKTEKDNATFFNDSKEVSLTGEWTNGQSIRYILTLPVGAEEMSVNTTYDENWDATDNEQTPKNPAS” here?
Answer: not soluble

Question: With “MSQPIYKRILLKLSGEALQGEDGLGIDPAILDRMAVEIKELVEMGVEVSVVLGGGNLFRGAKLAKAGMNRVVGDHMGMLATVMNGLAMRDSLFRADVNAKLMSAFQLNGICDTYNWSEAIKMLREKRVVIFSAGTGNPFFTTDSTACLRGIEIEADVVLKATKVDGVYDCDPAKNPDAKLYKNLSYAEVIDKELKVMDLSAFTLARDHGMPIRVFNMGKPGALRQVVTGTEEGTTICLEHHHHHH” as the sequence, how does the “soluble on expression in E. coli” value read?
Answer: not soluble

Question: With “MGSDKIHHHHHHMLGTLKKLRSRLDEADLVQYNLVVGDQELPLNPLIGQTLSLTHTGNIFCCNCGRKTKKSYSQGHCFPCMQKLASCDMCIMKPETCHFDQGTCREPQWAQSHCFVPHYVYLSNTSGIKVGITRNNQLPTRWIDQGATQGLAIFKVSTRQLSGLIEVELAKLVKDKTNWQAMLKSNAADIDLNAKAQELIPHIEHRLNELAMEKGEYKIERLTETIQQINYPMTAFPKKISSHNFDKVPEVTGVLLGIKGQYLIFDTGVINIRKFSAYEVTVTTN” as the sequence, how does the “soluble on expression in E. coli” value read?
Answer: not soluble

Question: With “MKKYTEMTKDELMQEKTALEAEYEKIKNLGLSLDMSRGKPGADQLDLSLPMLDVLKSDSDMKSESGLDVRNYACLDGIPEAKALIAGMVGAKPEQAIVYGNSSLNIMYDQVARAFIFGLCGNTPWCKLDKVKFLCPVPGYDRHFAITEEFGVEMINIPMTEDGPDMDMVEKYVNNDASVKGIWCVPKYSNPQGVVYSDETVERFAKLKPAADDFRIFWDNAYTVHHLYDDKQAEIPNILELCEKEGNPDMVFEFCSTSKVTFPGAGVAGICTSEKNREDIKKRLTIQTIGHDKINQLRHARFFKDVDGIKAHMAKHAALIRPKFELVENILTDEIASRGIGTWVKPLGGYFFGFEALSGCAKEIVAKCKEAGVTMTGAGSPFPYKKDPDDSVIRIAPTYPSLDELKKAAEVFVIVTRLVSVNKLLEA” as the sequence, how does the “soluble on expression in E. coli” value read?
Answer: not soluble

Question: With “MSTTTAITSTLQRVTKAPEGRRMLRVEARNSQTPIESKPRWIRTAVKTGPEYQDMKKKVSGASLHTVCQEAGCPNIHECWESREATFLIGGANCSRRCDFCQINSAKPEPLDRDEPRRVAESVREMQLNYSTITGVTRDDLEDEGAWLYAEVVRKIHELNPHTGVENLTPDFSGKPDLLQEVFEARPEVFAHNLETVPRIFKRIRPAFRYERSLDVIRQARDFGLVTKSNLILGMGETVDEIRDALVDLHSAGCDIITITQYLRPGPMYHPIDRWVKPEEFIDHADFARELGFGAVMSGPLVRSSYRAGKLYAEALAARGESLPENLAHLATTADGSTAQEANTLLEKYGPSQDTPVVSSKA” as the sequence, how does the “soluble on expression in E. coli” value read?
Answer: not soluble

Question: Which “soluble on expression in E. coli” value does the source give for “MRAIRVHEVGGPEVLRLEELPVPEPGPGEVLVRLLAIGVNFIDTYKRKGLYPVPAPFTLGEEGAGVVEKVGEGVVGVRPGDRVAFANVQGAYAEYLVVPAERLVPVPEGLDPKLAAAALLQGMTVHYLLKSTYPVAPGDQVLVHAGAGGVGQLLIQWAKRLGATVYATASTEEKRGLCLQAGADYALPYEGFAEAVKALSGGGVDVVYDGVGKDTFLGSLAALRPRGMLVLFGQSSGPVPPQDPQILNRMGSLFLTRPTLHHYTASRKELLFRPGEVFRGVLKGWLKVRIGAEFPLENARKGPRGPRGPKDHGQGPPPALGRGNRAHFSGSGVVYYGPFQGLM” here?
Answer: soluble
